In the supplement of paper PMC12455559:
± gives the standard deviation of the averaged measurements.

Experiments:
[1] = purified protein yield per well (BCA); higher = higher soluble expression
How it was run: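 Purified protein yield per well is reported, as measured by the Pierce Rapid Gold BCA kit. The enzymes came from E. coli C41(DE3) autoinduction cultures of 2 mL with 100 µg/mL kanamycin, held at 37 °C for 2 h and 18 °C for 40 h, then lysed and purified on Ni-charged magnetic beads with SUMO protease release. The detection threshold is 25 ug (0.1 mg/mL), and lower values are under it.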

[2] = melting temperature (DSF); higher = more thermostable
How it was run: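 Candidate enzymes were expressed in E. coli C41(DE3), purified on nickel beads and released by SUMO protease cleavage. For differential scanning fluorimetry, 45 μL enzyme (0 to 0.3 mg/mL) was mixed with 5 μL 5X Sypro Orange in sealed PCR plates on a Bio-Rad CFX96 instrument. Fluorescence was read from 25 °C in steps of 0.3 °C per cycle (ramp 0.3 °C/s) for 250 cycles. The read-out is melting temperature.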

[3] = PET hydrolysis, aromatic products released after 48 h (umol product/mg enzyme); higher = more PET depolymerization activity
How it was run: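 Sealed plates containing 3.5 mg PET (amorphous film or crystalline powder), 450 μL buffer and 5 μg (50 μL) tagless candidate enzyme were held 48 h at 40 or 60 °C with no shaking. Supernatants were then read at 260 and 280 nm against buffer blanks. The aromatic product detected this way, per mg enzyme, defines PET hydrolysis activity.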

[4] = substrate: cryPow, 40 °C, pH 4.5
[5] = substrate: cryPow, 40 °C, pH 5.5
[6] = substrate: cryPow, 40 °C, pH 6.5
[7] = substrate: cryPow, 40 °C, pH 7.5
[8] = substrate: cryPow, 60 °C, pH 4.5
[9] = substrate: cryPow, 60 °C, pH 5.5
[10] = substrate: cryPow, 60 °C, pH 6.5
[11] = substrate: cryPow, 60 °C, pH 7.5
[12] = substrate: aFilm, 40 °C, pH 4.5
[13] = substrate: aFilm, 40 °C, pH 5.5
[14] = substrate: aFilm, 40 °C, pH 6.5
[15] = substrate: aFilm, 40 °C, pH 7.5
[16] = substrate: aFilm, 60 °C, pH 4.5
[17] = substrate: aFilm, 60 °C, pH 5.5
[18] = substrate: aFilm, 60 °C, pH 6.5
[19] = substrate: aFilm, 60 °C, pH 7.5

| Sequence | purified protein yield per well [1] [µg] | melting temperature [2] [C] | PET hydrolysis [3, 4] | PET hydrolysis [3, 5] | PET hydrolysis [3, 6] | PET hydrolysis [3, 7] | PET hydrolysis [3, 8] | PET hydrolysis [3, 9] | PET hydrolysis [3, 10] | PET hydrolysis [3, 11] | PET hydrolysis [3, 12] | PET hydrolysis [3, 13] | PET hydrolysis [3, 14] | PET hydrolysis [3, 15] | PET hydrolysis [3, 16] | PET hydrolysis [3, 17] | PET hydrolysis [3, 18] | PET hydrolysis [3, 19] |
| --- | --- | --- | --- | --- | --- | --- | --- | --- | --- | --- | --- | --- | --- | --- | --- | --- | --- | --- |
| ADNPYQRGPDPTRTSVTAVNGPFANTSVSVPTGYGFNGGRIYYPTDTSQGTFGAIAISPGYTALFSAELAWMGPWLASHGFVVIGIETNSRNDFDTARGTQLLAALDYLTQQSPVRDRVDPNRLAVAGHSMGGGGALSAATRRSSLKAVVGIAPYSPSSNLANDRVPTMIFAGQADTVVTPSYATNLYNSLPTTTESVYLEVAGADHGFMVGRSNPVMVRTMLPFVKMFVDNDTRYSQFLCPLADSSGVVTYRSTCPLLPSTPTTPTATPTNTPTPTASPTVPPGSASQIVGTQSGRCIDVPNASHTNGTRVALYDCNRQSNQSWTYTSTKQLQVYGTMCLDAAGSGNGAAVQIYGCHSQTNQQWNVNSNGTISSVQSGRCLDVWSTANGAQVQLYDCHGQTNQQFRLVSLAR [ESM137] | 140 | 62.2 | 10 | 18 | 17 | 8 | < 3 | < 3 | < 3 | < 3 | – | – | – | – | – | – | – | – |
| ADNPYQRGPDPTRTSVTAVNGPFANTSVSVPTGYGFNGGRIYYPTDTSQGTFGAIAISPGYTALFSAELAWMGPWLASHGFVVIGIETNSRNDFDTARGTQLLAALDYLTQQSPVRDRVDPNRLAVSGHSMGGGGALSAAMRRSSLKAVVGITPYSPSSNLANDRVPTMIISGQADTVVTPSYALGLYNSIPTTTKSVYLEVAGGDHGFMVGRSNPVMVRTMLPFVKMFIDNDARYSQFLCPLLDNSGVVTYRSTCPLLPTTPPTGTPTPTPTNSPTTPPPGSASGIVGAQSGRCIDVPNASRSNGTRVQLYDCNRQSNQSWTYTANKQLRVYGDMCLDAAGSGNGAAVQIYSCHNQTNQQWNVNSNGTITGVQSGRCLDVWSTSNGAQVQLYDCHGQANQQFRLAPLA [ESM059] | 311 | 65.8 | 10 | 21 ± 1.4 | 26 | 21.5 ± 2.1 | < 3 | 5 | 4 | 2 ± 2.8 | < 3 | 2 ± 2.8 | 1.5 ± 2.1 | < 3 | < 3 | < 3 | < 3 | < 3 |
| ADNPYQRGPDPTRTSVTAVNGPFANTSVSVPTGYGFNGGRIYYPTDTSQGTFGAIAISPGYTALFSAELAWMGPWLASHGFVVIGIETNSRNDFDTARGTQLLAALDYLTQQSPVRDRVDPTRLAVAGHSMGGGGALSAAIRRSSLKAVVGIAPYSPSSNLANDRVPTMIFSGQADTVVTPSYATGLYNSLPSTTESVYLEVAGADHGFMVGRSNPVMVRTMLPFVKMFVDNDARYSQFLCPLLDNSGVVTYRSTCPLLPSTPTTPTPTPTDPTTPTPTPTVPPGSASQIVGTQSGRCIDVPNASRTNGTRVQLYDCNRQTNQAWTYTSGKQLQVYGNMCLDAAGTGNGAAVQIYSCHSQTNQQWNVNSNGTISNVQSGRCLDVWSTANGAQIQLYDCHSQTNQQFRVTPLA [ESM062] | 135 | 62.5 | 11 | 27 | 33 | 24 | < 3 | 4 | 4 | < 3 | – | – | – | – | – | – | – | – |
| ADNPYQRGPDPTRTSVTAVNGPFANTSVSVPTGYGFNGGRIYYPTDTSQGTFGAIAISPGYTALFSAELAWMGPWLASHGFVVIGIETNSRNDFDTARGTQLLAALDYLTQQSPVRDRVDPTRLAVAGHSMGGGGALSAATRRSSLKAAVGIAPYSPSSNLANDRVPTMVFAGQADTVVTPSYATGLYNSLPATTESAYLEVAGADHGFMVGRSNPVLVRTMLPFVKMFVDNDARYSQFLCPLLDSSGVVTYRSTCPLLPSTPTTPTATPTNTPTPTASPTVPPTSASQIVGTQSGRCVDVPNASRTNGTRVTLYDCNRQINQTWTYTANKQLQVYGTMCLDAAGTGNGAAVQIYNCHGQTNQQWNVNSNGTISSVQSGRCLDVWSTSNGAQIQLYDCHGQPNQQFRLVSLA [ESM135] | 109 | 61.3 | 6 | 15 | 14 | 5 | < 3 | < 3 | < 3 | < 3 | – | – | – | – | – | – | – | – |
| ADNPYQRGPDPTTASVAATRGTFATAEQTVGGGNGFAAGKIYYPIDTSQGTFGAIAIVPGYTATWAAEGAWMGPWLASFGFVVIGIDTNSRNDYDTARGTQLLAALDYLTQRSPVSGRVDAKRLSVMGHSMGGGGAVYAAIHRPSLWAAVGLAPFSPSQNLTTDKVPALLLAGQNDGTVSPSSVQSLYNGIPAGVEKGYLELAGAGHGFPTSSNSVMMRRVIPWLKIFVDHDSRYSKFLCPSLADSTGISGYRSTCPLDVPGGGDPGPGDQAVSLVGAGSGKCIDVPNQSQANGTALVVWTCNGGTNQRWTPTSAGELRVYNGTKCMDAGSGQPGTAVTINACGGGNSQKWTVNATGTITNAQAGACLDVSGGGTADNTPVIVWNCTGAANQVWTRQM [ESM103] | 48.2 | 51.7 | < 3 | < 3 | < 3 | < 3 | – | – | – | – | – | – | – | – | – | – | – | – |
| ADNPYQRGPDPTVASVAATNGPFATAQLNVPSGNGFNGGTIYYPTDTSLGTWGAVAIVPGYTARFANEEAWMGPRLASFGFVVIGVETNSTTDWDTARGTQLLAALDYLTQKSSVRDRVDASRLAVIGHSMGGGGVVYAASQRPSLKAAIGLAPYAPSGNLSNVKVPMLIQGGQNDTVVTPSYLDGLYPTLPSSTPGAYVQYSGADHLFWTKANNIELRTQIPWLKIFLDNDTRYTQFMCPTLKDTASVAKYSAKCSLIPSAGSTTAPTTQPATSAPATTSPTTQPPSQPG [TEP083] | 356 | 64.3 | < 3 | 3 ± 4.2 | < 3 | < 3 | < 3 | < 3 | < 3 | < 3 | < 3 | < 3 | < 3 | < 3 | < 3 | < 3 | < 3 | < 3 |
| ADNPYQRGPDPTVASVAATRGTFATAQLTVPAGNGFGGGYIYYPTDTSRGTYGAVAIVPGYSALFANEEAWMGPWLASFGFVVIGVETITRNDGADARATQLLAALDYLTQRSQVRDRVDATRLAVMGHSAGGAGTILASERRPSLKAAVGLAPGTPGSLSLATNHVPMMIIGGQTDPTVTPSYLNNLYATMPAATPSDFVQIAGADHLFFTRANNTEMKVLIPWLKIFLDNDTRYTQFLCPSLADPQGISLYRSKCPYLPPGTTSPSPSASSTLSPSPSVSPTASPSPSVSLTPSPSNPATGCAATYRTVNSWPGGFQGEVTVSAGGAPVDGWTVGWTLGSGQSITQLWNGTLTTSGSTVTVRNPAYGGSIPAGGSVVFGFLGTGTPSVPALTCTSP [ESM031] | 66.9 | 47.8 | < 3 | < 3 | < 3 | < 3 | < 3 | < 3 | < 3 | < 3 | – | – | – | – | – | – | – | – |
| ADNPYQRGPEPTTSSVAATRGTFATAEVSVSKGNGFGGGKIYYPTDTSKGTFGAIAVVPGYTATWAAEGAWMGPWLASFGFVVIGIDTNSRTDYDTARGTQLLAALDYLTQKSSVRSRVDVKRLSVMGHSMGGGGAMYAALHRPSLWAAVGNAPFSPSQNLKSDRVPTLLLAGQKDTTVTPSSVVGLYNGIPAATEKGYLELTGAAHNFPTRSNSVMMRKVVPWLKIFVDHDTRYGQFLCPSLKDTTGITSYRSTCPLTTAGQ [ESM078] | 68.8 | 52 | < 3 | < 3 | < 3 | < 3 | < 3 | < 3 | < 3 | < 3 | – | – | – | – | – | – | – | – |
| ADNPYQRGPNPTAASIAATTGPFAIASVSVARGNGFGGGVIYYPTDTSQGTFGAIAISPGLNGTWPGIAWLGPRLASQGFVVFGIETNNLNDSPTSRGTQLLAALDYLTQRSSVRTRVDATRLAVAGHSMGGGGALDAALRRPSLQAAIGNAPYLPSGNLSTDRVPTLIYAMQNDTLVPPSRLTTMYNTIPATTERGYIQITGAGHNYIGQPSTNLARTMIPWFKIFIDNDTRFSQFLCPLSNMSGISQYRNSCPLI [ESM159] | 371 | 57.4 | < 3 | 15.5 ± 6.4 | 46.5 ± 3.5 | 74.5 ± 7.8 | < 3 | < 3 | 6.5 ± 2.1 | 13 ± 1.4 | < 3 | < 3 | < 3 | 2 ± 2.8 | < 3 | < 3 | < 3 | < 3 |
| ADNPYQRGPNPTLASVAANRGTFATAQTSVPAGNGFGGGVIYYPTDTSQTFGGVAIVPGYSALFANEEAWMGPWLASFGFVVIGIETNSRTDSADARGTQLLAALDYLTQRSSVRDRVDPNRLSVVGHSAGGAGVLSAILRRPTLKAGIGLAPGSPVGDYGLSNDRVPTMFISGQRDTTVTQSYLNGLYTTIPASTPSAWVEITGVDHLFATRANTTEMRVLIPWLKIWVDNDTRYTQFLCPLADSSNISMYRNKCPYVPPGGSPSPSASPSSSPSQSPSQSPSQSPSQSPSQSPSTSPSPPPPGACVAEYQPQNSWPGGYQALVTVKAGSSAINGWTVRWTLGSGQTISQAWNGTLSTSGSAVTVKNASYNGSLPAGGSTSFGFLATGTPSTPTLTCTSP [ESM013] | 431 | 59.8 | < 3 | < 3 | < 3 | < 3 | < 3 | < 3 | < 3 | < 3 | < 3 | < 3 | < 3 | < 3 | < 3 | < 3 | < 3 | < 3 |
| ADNPYQRGPNPTLASVAATRGTFATAQINVPGGNGFGSGVIYYPTDTSQGTFGGVAIVPGYSALFANEEAWMGPWLASFGFVVIGIETNSRTDSADARGTQLLAALDYLTQRSSVRDRVDPSRLSVVGHSAGGAGVLSAVIRRPSLKAAVGLAPGSPVGNYELSADKVPLMFISGQKDTTVTQSYLNGLYTTIPASTPSAWVEITGVDHLFATRANTTEMRVLIPWLKIFLDNDTRYTQFLCPLADSSGISMYRNKCPYVPPGGSSPSPSATPSPSVSPSASPSASPSASPSVSPSASPSVSPSASPSASPSSQPSGACTASYKTVNSWPGGYQGEVTVTAGSAAINGWTVRWTLGSGQSVSQVWNGTLTTSGSTVTVKNVSYNGSLPAAGSATFGFLANGTASTPAVTCTSP [ESM004] | 375 | 55.9 | < 3 | < 3 | < 3 | < 3 | < 3 | < 3 | < 3 | < 3 | < 3 | < 3 | < 3 | < 3 | < 3 | < 3 | < 3 | < 3 |
